Data published in publication PMC2213055 (The Journal of Experimental Medicine, 2005).

Tests used:
MSH2–MSH6 heterodimer = MSH2–MSH6 heterodimer (human, UniProt P43246 1-934; P52701 1-1360); assay: ELISA
MSH2–MSH3 heterodimer = MSH2–MSH3 heterodimer (human, UniProt P43246 1-934; P20585 1-1137); assay: ELISA
MSH2–MSH3 heterodimer, sequence (P43246 whole entry, chain 1 of 2): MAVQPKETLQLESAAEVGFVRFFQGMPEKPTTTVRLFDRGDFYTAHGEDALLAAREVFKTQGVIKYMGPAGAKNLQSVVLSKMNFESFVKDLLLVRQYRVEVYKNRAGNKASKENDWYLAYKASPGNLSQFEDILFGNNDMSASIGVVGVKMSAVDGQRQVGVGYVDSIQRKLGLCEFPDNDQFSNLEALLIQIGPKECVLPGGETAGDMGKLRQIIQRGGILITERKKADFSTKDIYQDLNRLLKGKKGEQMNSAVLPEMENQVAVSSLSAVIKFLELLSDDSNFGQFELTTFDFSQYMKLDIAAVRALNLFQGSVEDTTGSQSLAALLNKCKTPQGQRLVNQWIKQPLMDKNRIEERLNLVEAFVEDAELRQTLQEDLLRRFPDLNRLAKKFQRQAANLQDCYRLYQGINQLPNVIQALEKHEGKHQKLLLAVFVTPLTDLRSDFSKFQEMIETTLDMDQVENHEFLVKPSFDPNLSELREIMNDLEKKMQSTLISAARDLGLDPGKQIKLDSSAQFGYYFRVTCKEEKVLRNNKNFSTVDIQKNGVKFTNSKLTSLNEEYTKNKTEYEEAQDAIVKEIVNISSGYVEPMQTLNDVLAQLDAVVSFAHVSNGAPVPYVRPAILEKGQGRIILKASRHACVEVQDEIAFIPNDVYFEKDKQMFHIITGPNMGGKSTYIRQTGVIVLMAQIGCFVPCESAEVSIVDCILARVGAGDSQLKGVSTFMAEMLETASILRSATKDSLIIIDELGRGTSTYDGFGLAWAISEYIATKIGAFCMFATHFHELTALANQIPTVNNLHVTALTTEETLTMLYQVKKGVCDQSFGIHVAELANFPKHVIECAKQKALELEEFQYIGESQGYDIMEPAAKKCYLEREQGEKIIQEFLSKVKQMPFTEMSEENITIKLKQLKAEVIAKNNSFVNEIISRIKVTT
MSH2–MSH3 heterodimer, sequence (P20585 whole entry, chain 2 of 2): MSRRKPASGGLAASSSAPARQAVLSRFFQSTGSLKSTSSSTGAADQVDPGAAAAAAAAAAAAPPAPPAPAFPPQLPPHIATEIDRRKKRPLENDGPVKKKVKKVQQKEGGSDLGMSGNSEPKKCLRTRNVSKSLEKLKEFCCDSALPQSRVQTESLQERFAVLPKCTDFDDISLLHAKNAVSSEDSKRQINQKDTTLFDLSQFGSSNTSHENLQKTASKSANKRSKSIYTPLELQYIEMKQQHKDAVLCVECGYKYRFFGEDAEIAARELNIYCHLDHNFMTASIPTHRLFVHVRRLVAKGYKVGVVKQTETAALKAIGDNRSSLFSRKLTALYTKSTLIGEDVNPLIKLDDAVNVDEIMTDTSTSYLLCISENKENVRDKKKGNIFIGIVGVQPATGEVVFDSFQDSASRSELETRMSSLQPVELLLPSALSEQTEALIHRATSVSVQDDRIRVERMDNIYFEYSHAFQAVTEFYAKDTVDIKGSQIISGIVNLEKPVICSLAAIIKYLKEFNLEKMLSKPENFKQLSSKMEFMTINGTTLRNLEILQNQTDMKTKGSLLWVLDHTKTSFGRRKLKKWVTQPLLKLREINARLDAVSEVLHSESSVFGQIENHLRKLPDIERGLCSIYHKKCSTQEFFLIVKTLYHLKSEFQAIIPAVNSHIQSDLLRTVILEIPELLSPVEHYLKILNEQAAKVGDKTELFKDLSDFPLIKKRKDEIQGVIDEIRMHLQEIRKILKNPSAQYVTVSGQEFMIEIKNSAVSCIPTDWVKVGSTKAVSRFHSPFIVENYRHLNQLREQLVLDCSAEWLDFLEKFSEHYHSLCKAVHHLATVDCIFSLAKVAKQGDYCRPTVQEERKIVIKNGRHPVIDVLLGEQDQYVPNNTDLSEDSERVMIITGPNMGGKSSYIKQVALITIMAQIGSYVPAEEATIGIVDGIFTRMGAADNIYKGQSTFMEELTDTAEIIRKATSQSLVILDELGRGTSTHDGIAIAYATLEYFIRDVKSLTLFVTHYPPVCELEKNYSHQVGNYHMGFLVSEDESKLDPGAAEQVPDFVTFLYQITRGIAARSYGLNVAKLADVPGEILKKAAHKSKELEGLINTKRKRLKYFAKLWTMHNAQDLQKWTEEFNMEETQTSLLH

MSH2–MSH6 heterodimer, sequence (P43246 whole entry, chain 1 of 2): as the sequence (P43246 whole entry, chain 1 of 2) above
MSH2–MSH6 heterodimer, sequence (P52701 whole entry, chain 2 of 2): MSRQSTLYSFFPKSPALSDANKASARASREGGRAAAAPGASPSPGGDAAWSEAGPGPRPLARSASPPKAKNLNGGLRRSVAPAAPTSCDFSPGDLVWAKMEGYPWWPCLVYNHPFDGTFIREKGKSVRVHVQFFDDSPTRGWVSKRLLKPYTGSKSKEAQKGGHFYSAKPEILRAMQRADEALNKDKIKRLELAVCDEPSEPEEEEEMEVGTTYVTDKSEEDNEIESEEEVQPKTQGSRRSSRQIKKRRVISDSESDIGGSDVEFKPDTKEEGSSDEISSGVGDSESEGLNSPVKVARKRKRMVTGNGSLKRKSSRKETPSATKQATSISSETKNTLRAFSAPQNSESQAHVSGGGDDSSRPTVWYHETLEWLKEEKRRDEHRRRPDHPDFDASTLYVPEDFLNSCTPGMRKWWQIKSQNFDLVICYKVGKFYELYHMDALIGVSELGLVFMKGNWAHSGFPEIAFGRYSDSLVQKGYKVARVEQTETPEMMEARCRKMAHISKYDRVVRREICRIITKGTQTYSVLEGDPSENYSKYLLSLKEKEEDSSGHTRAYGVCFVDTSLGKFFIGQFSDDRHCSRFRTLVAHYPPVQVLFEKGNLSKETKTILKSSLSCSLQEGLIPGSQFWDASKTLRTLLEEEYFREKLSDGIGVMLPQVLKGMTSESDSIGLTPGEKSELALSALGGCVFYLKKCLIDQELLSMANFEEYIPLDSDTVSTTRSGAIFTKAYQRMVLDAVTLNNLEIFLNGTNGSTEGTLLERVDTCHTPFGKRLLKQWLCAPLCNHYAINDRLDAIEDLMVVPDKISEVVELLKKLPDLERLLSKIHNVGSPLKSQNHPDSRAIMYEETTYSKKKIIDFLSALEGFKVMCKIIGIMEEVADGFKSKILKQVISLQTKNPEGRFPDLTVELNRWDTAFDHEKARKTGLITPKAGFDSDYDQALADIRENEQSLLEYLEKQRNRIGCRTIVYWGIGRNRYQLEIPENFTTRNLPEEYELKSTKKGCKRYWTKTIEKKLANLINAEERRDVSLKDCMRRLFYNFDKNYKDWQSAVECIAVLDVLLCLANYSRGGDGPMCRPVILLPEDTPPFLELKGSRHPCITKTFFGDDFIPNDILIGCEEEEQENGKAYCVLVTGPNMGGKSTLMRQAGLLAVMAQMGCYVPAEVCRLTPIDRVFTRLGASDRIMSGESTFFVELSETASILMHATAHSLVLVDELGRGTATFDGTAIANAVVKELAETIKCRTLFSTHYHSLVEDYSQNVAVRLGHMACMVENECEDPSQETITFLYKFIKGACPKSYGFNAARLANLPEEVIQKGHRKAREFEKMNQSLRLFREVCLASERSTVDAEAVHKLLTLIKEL

Kd (MSH2–MSH6 heterodimer): 6.5 ± 0.8 nM
Kd (MSH2–MSH3 heterodimer): 7.4 ± 1 nM
B1: recombinant human DNA polymerase η, (His)6-tagged (enzyme, UniProt Q9Y253 1-713, looked up)
chain: MATGQDRVVALVDMDCFFVQVEQRQNPHLRNKPCAVVQYKSWKGGGIIAVSYEARAFGVTRSMWADDAKKLCPDLLLAQVRESRGKANLTKYREASVEVMEIMSRFAVIERASIDEAYVDLTSAVQERLQKLQGQPISADLLPSTYIEGLPQGPTTAEETVQKEGMRKQGLFQWLDSLQIDNLTSPDLQLTVGAVIVEEMRAAIERETGFQCSAGISHNKVLAKLACGLNKPNRQTLVSHGSVPQLFSQMPIRKIRSLGGKLGASVIEILGIEYMGELTQFTESQLQSHFGEKNGSWLYAMCRGIEHDPVKPRQLPKTIGCSKNFPGKTALATREQVQWWLLQLAQELEERLTKDRNDNDRVATQLVVSIRVQGDKRLSSLRRCCALTRYDAHKMSHDAFTVIKNCNTSGIQTEWSPPLTMLFLCATKFSASAPSSSTDITSFLSSDPSSLPKVPVTSSEAKTQGSGPAVTATKKATTSLESFFQKAAERQKVKEASLSSLTAPTQAPMSNSPSKPSLPFQTSQSTGTEPFFKQKSLLLKQKQLNNSSVSSPQQNPWSNCKALPNSLPTEYPGCVPVCEGVSKLEESSKATPAEMDLAHNSQSMHASSASKSVLEVTQKATPNPSLLAAEDQVPCEKCGSLVPVWDMPEHMDYHFALELQKSFLQPHSSNPQVVSAVSHQGKRNPKSPLACTNKRPRPEGMQTLESFFKPLTH
